Measured values as given in PMC10176472.

Legend:
GST-CDK4 = GST-CDK4 (UniProt P11802); test: MST; microscale thermophoresis of MBP-P16p and MBP-cycP16p with GST-CDK4; three replicate measurements
[1] = target: CDK4 from MCF-7 cell lysate (human (endogenous in MCF-7)) (UniProt P11802)
[2] = target: CDK4 from MCF-7 cell lysate (human (endogenous in MCF-7)) (UniProt P11802); remark: listed apart in the source

Substance	Kd (GST-CDK4)	G0/G1 cell cycle arrest of MCF-7 cells, time course up to 72 h in serum-supplemented medium [1]	G0/G1 cell cycle arrest of MCF-7 cells treated for 24 h with different concentrations, flow cytometry; value at 15 μM [2]
MBP-P16p (linear counterpart of MBP-cycP16p) (from UniProt P42771 83-103) (peptide)	0.117 µM		
cyclized MBP-P16p protein (MBP-cycP16p) (from UniProt P42771 83-103) (peptide)	0.0277 µM		
bicyclic cycRGD-mCh-cycP16p (from UniProt P42771 83-103)		88%	76.7%
